These results are taken from patent US20230085357A1, “INJECTABLE HIGH CONCENTRATION PHARMACEUTICAL FORMULATIONS AND METHODS OF MANUFACTURING AND USE THEREOF” (Xeris Pharmaceuticals, Inc., priority 2021, published 2023).

The term Cmax denotes the maximum level reached in the sampled fluid or tissue.

Data set [1] in a line: Bevacizumab pharmacokinetics, plasma concentration after single 100 mg dose IV or SC. The note with it: female Gottingen minipigs, mean. In kind it is in vivo.
The conditions of data set [2]: IV product; cited from earlier work.
The mark [3] stands for this setting: single dose, plasma, uncorrected.

Turning to Avastin ®, in data set [1] (dose-corrected), the AUC336/D worked out at 3084 kg·µg·h/mL/mg, the AUClast/D was 5215 kg·µg·h/mL/mg, the “AUC∞/D” value is 5357 kg·µg·h/mL/mg and the Cmax/D was found to be 24.7 kg·µg/mL/mg. The T1/2 in data set [1] (single dose, plasma) stood at 227 h. In data set [1] (setting [3]), the AUC336 stood at 28380 µg·h/mL, the AUClast worked out at 47990 µg·h/mL, the “AUC∞” value is 49271 µg·h/mL and the Cmax is 230 µg/mL.

For “bevacizumab: human monoclonal antibody that binds Vascular Endothelial Growth Factor (VEGF), commercialized under the AVASTIN® brand”, in data set [2], the average clearance rate result was “about 0.262 L/day” and the half-life entry was “about 20 days”.
